Measurements as given in patent US20040077522A1 (published 2004).

B1: Haemophilus influenzae LuxS (enzyme)
chain: MPLLDSFKVDHTKMNAPAVRIAKTMLTPKGDNITVFDLRFCIPNKEILSPKGIHTLEHLFAGFMRDHLNGDSIEIIDISPMGCRTGFYMSLIGTPNEQKVSEAWLASMQDVLGVQDQASIPELNIYQCGSYTEHSLEDAHEIAKNVIARGIGVNKNEDLSLDNSLLKGSHHHHHH
modifications: selenomethionine in place of methionine (SeMet protein used for the crystals)
notes: Open reading frame amplified from H. influenzae ATCC 51907D genomic DNA and expressed in E. coli with 8 added C-terminal residues; Homodimer in the crystal (two molecules in the asymmetric unit); also called H. influenzae LuxS; Haemophilus influenzae wtLuxS
B2: Helicobacter pylori LuxS (enzyme)
chain: MKMNVESFNLDHTKVKAPYVRIADRKKGVNGDLIVKYDVRFKQPNRDHMDMPSLHSLEHLVAEIIRNHANYVVDWSPMGCQTGFYLTVLNHDNYTEILEVLEKTMQDVLKAKEVPASNEKQCGWAANHTLEGAQNLARAFLDKRAEWSEVGVGSHHHHHH
modifications: selenomethionine in place of methionine (SeMet protein used for the crystals)
notes: Open reading frame amplified from H. pylori ATCC 43504D genomic DNA and expressed in E. coli with 8 added C-terminal residues; Homodimer in the crystal (two molecules, A and B, in the asymmetric unit); also called H. pylori LuxS; Helicobacter pylori wtLuxS
B3: Deinococcus radiodurans LuxS (enzyme)
chain: MPDMANVESFDLDHTKVKAPYVRLAGVKTTPKGDQISKYDLRFLQPNQGAIDPAAIHTLEHLLAGYMRDHLEGVVDVSPMGCRTGMYMAVIGEPDEQGVMKAFEAALKDTAGHDQPIPGVSELECGNYRDHDLAAARQHARDVLDQGLKVQETILLERGSHHHHHH
modifications: selenomethionine in place of methionine (SeMet protein used for the crystals)
notes: Open reading frame amplified from D. radiodurans ATCC 13939D genomic DNA and expressed in E. coli with 8 added C-terminal residues; The same protein gave several crystal forms: P21 has a non-crystallographic dimer in the asymmetric unit, and C2 has a crystallographic dimer; also called D. radiodurans LuxS; Deinococcus radiodurans wtLuxS

Target: the molecule itself
Experiment: X-ray crystal structure, homodimer interface

| Protein | surface area buried through the dimer interaction [Å^2] |
| --- | --- |
| B1 | 4160 |
| B2 | 4180 |
| B3 | 3930 |
